Test results: PMC2854129, “Spadin, a Sortilin-Derived Peptide, Targeting Rodent TREK-1 Channels: A New Concept in the Antidepressant Drug Design” (PLoS Biology, 2010)
Where no end group is shown, it is not given here. The star is where a group is joined. 125I = radioactive iodine label on Tyr, [125I]*

Experiments:
TREK-1 [1] = assay: Whole-cell patch-clamp, cultured hippocampal pyramidal neurons; assay type: cell-based, mouse; conditions: 10 µM aa, K+ blockers, 7 out of 70 recorded neurons, at −50 mV
Protocol: Cortical neurons were prepared from 14 old mouse embryos, whereas hippocampal neurons were prepared from newborn mice. Briefly, dissected brain areas were dissociated and neurons were plated on polylysine-treated 35 or 60 mm dishes and maintained in culture in Neurobasal medium supplemented with B27, Glutamax, and antibiotics for 2 to 3 wk before to be used for electrophysiological or biochemical experiments.
Supplementary file pbio.1000355.s004.tif: Figure S4 Effects of spadin on cultured pyramidal neurons from hippocampus. (A) Cultured pyramidal neuron from hippocampus, with on top, the patch-clamp pipette. Neurons were chosen according to their morphology. (B) Current recorded in response to ramps of potential obtained in the various conditions indicated (aa, arachidonic acid: 10 µM; Spadin: 1 µM; Fluoxetine: 20 µM). Neurons were recorded in the whole-cell configuration of the patch-clamp technique. In voltage-clamp, ramps of potential from −90 mV to 70 mV were applied every 10 s. The % variation of the current amplitude was always measured at −50 mV. The currents were recorded in response to such ramps in control conditions and in the presence of a cocktail of potassium blockers suitable to isolate the TREK currents (10 mM tetraethyl ammonium (TEA), 3 mM 4-aminopyridine (4-AP), 50 nM charybdotoxin, 10 µM glibenclamide, 100 nM apamin). […] The blocks were reversible. (C) Time course of spadin and fluoxetine effects. Applications are indicated by the horizontal bars. (2.03 MB TIF) Click here for additional data file.

TREK-1 [2] = target: T1, TREK-1 (Mus musculus, UniProt P97438); assay: Whole-cell patch-clamp, TREK-1 transfected COS-7 cells; assay type: cell-based; set-up: GFP; expressed in transfected cells; host or cells: COS-7 cells, DEAE-dextran transfection; conditions: 10 µM aa
T1 sequence (P97438 1-426): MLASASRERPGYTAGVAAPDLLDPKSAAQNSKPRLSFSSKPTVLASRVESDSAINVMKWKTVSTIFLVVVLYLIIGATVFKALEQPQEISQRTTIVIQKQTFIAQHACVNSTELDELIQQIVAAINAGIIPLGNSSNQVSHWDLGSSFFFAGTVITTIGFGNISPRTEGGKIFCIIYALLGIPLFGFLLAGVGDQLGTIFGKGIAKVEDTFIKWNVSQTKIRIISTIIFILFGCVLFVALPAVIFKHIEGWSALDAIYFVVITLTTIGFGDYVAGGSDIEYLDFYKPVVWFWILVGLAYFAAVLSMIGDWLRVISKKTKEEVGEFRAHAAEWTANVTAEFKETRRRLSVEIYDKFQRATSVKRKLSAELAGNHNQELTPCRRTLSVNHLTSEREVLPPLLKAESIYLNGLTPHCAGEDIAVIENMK
Protocol: All electrophysiological experiments were done on COS-7 cells seeded at a density of 20,000 cells/35-mm dish 24 h before transfection. Cells were transfected by the classical DEAE-dextran method with TREK-1-GFP plasmids (0.1 µg/µL). Cells were visualized 48–72 h after transfection using fluorescence.
The whole-cell patch-clamp technique was used to evaluate TREK-1 potassium channel current by using a RK 400 patch-clamp amplifier (Axon Instruments, USA), as previously described. Currents were lowpass filtered at 3 kHz, digitized at 10 kHz using a 12-bit analog-to-digital converter. […] The bath solution contained (in mM) 150 NaCl, 5 KCl, 3 MgCl2, 1 CaCl2, and 10 HEPES, adjusted to pH 7.4 with NaOH; the patch pipette solution contained (in mM) 155 KCl, 3 MgCl2, 5 EGTA, and 10 HEPES, adjusted to pH 7.2 with KOH. Cells were clamped at −80 mV and voltage changes were either applied by ramp (from −100 to 50 mV, 1 s in duration) or by step (from −100 to 40 mV, 1.5 s in duration). Cells were continuously superfused with a microperfusion system. The pipette capacitance was not subtracted from total membrane capacitance and there was no leak subtraction. […]
Pclamp software was used to analyze currents recorded in the whole-cell mode measured at 0 mV. Results are expressed as means ± SD. […]

TREK-1 channel = assay: Whole-cell patch-clamp, hippocampal CA3 pyramidal neurons in brain slices, wild-type mice; assay type: cell-based, mouse; conditions: 12 out of 28 recorded neurons; K+ blockers; aa 10 µM; mean ± SEM, n = 12
TREK-1 [3] = target: T1, TREK-1; assay: Competition binding, 125I-spadin, TREK-1 transfected COS-7 cell homogenates; set-up: expressed in transfected cells; host or cells: COS-7 cells, DEAE-dextran transfection; conditions: 0.2 nM 125I-spadin; TREK-1 transfected COS-7 homogenates; Tris-HCl pH 7.4, 0.1% BSA; mean of duplicates from 2 to 5 independent experiments
Protocol: For competition experiments, homogenates from TREK-1 transfected COS-7 or C13NJ cells were incubated with 0.2 nM ^125I-spadin or ^125I-NT (200,000 cpm in 250 µl) iodinated and purified as previously described. Incubations were performed in 50 mM Tris-HCl, pH 7.4 containing 0.1% BSA in the presence of increasing concentrations of non-radioactive spadin or NT (10^−10 to 10^−5M). Incubations were terminated by addition of 2 ml of ice-cold binding buffer followed by filtration through cellulose acetate filters (Sartorius, Göttingen, Germany) and washing twice with 2 ml of ice-cold buffer. Radioactivity on filters was counted with a gamma-counter.

[4] = test system: non-transfected COS-7 cells; assay: 125I-spadin binding to non-transfected COS-7 cells
TREK-1 [5] = target: T1, TREK-1; assay: Association kinetics and internalization of 125I-spadin on whole COS-7 cells expressing TREK-1; assay type: cell-based; set-up: expressed in transfected cells; host or cells: COS-7 cells, DEAE-dextran transfection; conditions: 37°C; for intracellular (acid-NaCl wash resistant) fraction of total bound 125I-spadin: 30 min, acid-NaCl wash 2 min
Protocol: Cells, grown on 12 mm multiwell-dishes, were incubated with 0.2 nM ^125I-spadin for various times at 37°C in an Earle's Tris-Hepes buffer (cell binding buffer). Incubations were terminated by washing cells twice with the binding buffer or with the same buffer containing 0.5 M NaCl, pH 4, for 2 min to remove non-sequestrated radioactivity (acid-NaCl wash). Cells were harvested with 1 ml of 0.1 N NaOH and counted in a gamma-counter. Non-specific binding was determined in the presence of 10 µM unlabeled spadin.

[6] = target: TREK-1 channel (KCNK2), transfected in COS-7 cells (mouse) (UniProt P97438)
NTSR3/Sortilin = NTSR3/Sortilin (UniProt Q99523); conditions: cited from earlier work
TREK-1 [7] = target: T2, TREK-1 (Mus musculus, UniProt P97438); assay: radioligand binding
T2 chain: T1 sequence (P97438 1-426)

TREK-1 [8] = target: T2, TREK-1; assay: radioligand competition

Sequence of NTSR3/Sortilin (Q99523 78-755): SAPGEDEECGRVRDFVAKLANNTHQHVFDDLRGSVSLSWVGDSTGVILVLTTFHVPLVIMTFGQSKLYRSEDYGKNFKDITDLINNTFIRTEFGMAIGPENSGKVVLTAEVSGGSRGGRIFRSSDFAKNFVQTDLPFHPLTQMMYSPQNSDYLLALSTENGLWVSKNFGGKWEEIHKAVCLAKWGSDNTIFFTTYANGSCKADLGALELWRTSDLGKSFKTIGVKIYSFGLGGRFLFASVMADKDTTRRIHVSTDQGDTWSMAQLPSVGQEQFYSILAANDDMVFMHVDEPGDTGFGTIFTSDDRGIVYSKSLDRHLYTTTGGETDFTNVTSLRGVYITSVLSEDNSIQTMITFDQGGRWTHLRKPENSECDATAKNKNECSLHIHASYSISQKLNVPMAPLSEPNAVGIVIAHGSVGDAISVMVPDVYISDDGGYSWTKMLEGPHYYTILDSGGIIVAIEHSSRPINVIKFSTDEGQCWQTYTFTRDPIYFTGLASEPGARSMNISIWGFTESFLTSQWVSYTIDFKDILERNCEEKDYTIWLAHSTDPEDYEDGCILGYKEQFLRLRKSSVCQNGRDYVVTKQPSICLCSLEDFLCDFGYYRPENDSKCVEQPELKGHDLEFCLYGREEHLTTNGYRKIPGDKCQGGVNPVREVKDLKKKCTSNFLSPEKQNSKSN
Sequence of sortilin propeptide 1-44 (Q99523 34-77): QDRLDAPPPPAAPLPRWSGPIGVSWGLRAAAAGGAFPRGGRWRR

With CCCCC/C=C\C/C=C\C/C=C\C/C=C\CCCC(=O)O [arachidonic acid] the “increase of remaining current by arachidonic acid” value (TREK-1 [1]) was “about 50%”, the “activation of TREK-1 basal channel activity” value (TREK-1 [2]; as previously described [21]) was “strongly and reversibly activated” and the “increase in amplitude of remaining current by arachidonic acid” value (TREK-1 channel) was 23.3%±4.8%.

With “QDRLDAPPPPAAPLPR [Gln1-Arg16, N-terminal fragment of the full length propeptide]” the “effect on aa-induced current increase” value (TREK-1 [2]; after 90 s of application, Figure S2) was “unable to inhibit the current increase” and the “affinity for TREK-1” value (TREK-1 [3]) was 1 µM.

For “^125I-spadin: monoiodinated spadin (on Tyr0), HPLC purified (Y(125I)APLPRWSGPIGVSWGLR)”, the “125I-spadin binding” value [4] was “totally devoid of ^125I-Spadin binding”, the “time to plateau of cell-associated radioactivity” value (TREK-1 [5]; 0.2 nM 125I-spadin, whole COS-7 cells expressing TREK-1) was at most 30 min and the “intracellular (acid-NaCl wash resistant) fraction of total bound 125I-spadin” value (TREK-1 [5]) was 80%. For the same molecule, the “intracellular (acid-NaCl wash resistant) fraction of total bound 125I-spadin” value (TREK-1 [5]; listed as 125I-labelled spadin) was “about 80%”.

With “full length propeptide of NTSR3/Sortilin (Gln1-Arg44)” the block of the arachidonic acid-stimulated TREK-1 current at 0 mV, whole-cell patch clamp, TREK-1 transfected COS-7 cells, 500 nM propeptide [6] was 41%.

For “sortilin propeptide 1-44 (from UniProt Q99523)”, the Kd (NTSR3/Sortilin) is listed as 5 nM.

Molecule APLPRWSGPIGVSWGLR [spadin] has a Kd (TREK-1 [7]) of about 10 nM.

QDRLDAPPPPAAPLPR [propeptide N-terminal fragment Gln1-Arg16 1-16] gave a Kd (TREK-1 [8]) of 1000 nM.
